{
  "source": "paper PMC6007489",
  "about": "(Nucleic Acids Research, 2018)",
  "molecular_target": "Msh2–Msh3 (S. cerevisiae, UniProt P25847 1-964; P25336 1-1018)",
  "assay": "far-Western, overlay or dot blot",
  "data": [
    {"binder": "His–rad1R203A,K205A–Rad10 (complex, S. cerevisiae) chain 1: MSQLFYQGDSDDELQEELTRQTTQASQSSKIKNEDEPDDSNHLNEVENEDSKVLDDDAVLYPLIPNEPDDIETSKPNINDIRPVDIQLTLPLPFQQKVVENSLITEDALIIMGKGLGLLDIVANLLHVLATPTSINGQLKRALVLVLNAKPIDNVRIKEALEELSWFSNTGKDDDDTAVESDDELFERPFNVVTADSLSIEKARALYISGGILSITSRILIVDLLSGIVHPNRVTGMLVLNADSLRHNSNESFILEIYRSKNTWGFIKAFSEAPETFVMEFSPLRTKMKELRLKNVLLWPRFRVEVSSCLNATNKTSHNKVIEVKVSLTNSMSQIQFGLMECLKKCIAELSRKNPELALDWWNMENVLDINFIRSIDSVMVPNWHRISYESKQLVKDIRFLRHLLKMLVTSDAVDFFGEIQLSLDANKPSVSRKYSESPWLLVDEAQLVISYAKKRIFYKNEYTLEENPKWEQLIHILHDISHERMTNHLQGPTLVACSDNLTCLELAKVLNASNKKRGVRQVLLNKLKWYRKQREETKKLVKEVQSQDTFPENATLNVSSTFSKEQVTTKRRRTRGASQVAAVEKLRNAGTNVDMEVVFEDHKLSEEIKKGSGDDLDDGQEENAANDSKIFEIQEQENEILIDDGDAEFDNGELEYVGDLPQHITTHFNKDLWAEHCNEYEYVDRQDEILISTFKSLNDNCSLQEMMPSYIIMFEPDISFIRQIEVYKAIVKDLQPKVYFMYYGESIEEQSHLTAIKREKDAFTKLIRENANLSHHFETNEDLSHYKNLAERKLKLSKLRKSNTRNAGGQQGFHNLTQDVVIVDTREFNASLPGLLYRYGIRVIPCMLTVGDYVITPDICLERKSISDLIGSLQNNRLANQCKKMLKYYAYPTLLIEFDEGQSFSLEPFSERRNYKNKDISTVHPISSKLSQDEIQLKLAKLVLRFPTLKIIWSSSPLQTVNIILELKLGREQPDPSNAVILGTNKVRSDFNSTAKGLKDGDNESKFKRLLNVPGVSKIDYFNLRKKIKSFNKLQKLSWNEINELINDEDLTDRIYYFLRTEKEEQEQESTDENLESPGKTTDDNALHDHHNDVPEAPV chain 2: MNNTDPTSFESILAGVAKLRKEKSGADTTGSQSLEIDASKLQQQEPQTSRRINSNQVINAFNQQKPEEWTDSKATDDYNRKRPFRSTRPGKTVLVNTTQKENPLLNHLKSTNWRYVSSTGINMIYYDYLVRGRSVLFLTLTYHKLYVDYISRRMQPLSRNENNILIFIVDDNNSEDTLNDITKLCMFNGFTLLLAFNFEQAAKYIEYLNL", "values": [
      {"measurement": "fold lower binding than His–Rad1–Rad10", "value": "~4", "unit": "fold"}
    ]}
  ]
}
